Experimental data: patent US20260242487A1

Key:
[1] = target: hFGFR2b-Fc (Kactus, Catalog #FGR-HM2BB) (human) (UniProt P21802); test: competition ELISA: inhibition of FGF7-his binding to coated hFGFR2b-Fc
[2] = target: hFGFR2b-Fc (Kactus, Catalog #FGR-HM2BB) (human) (UniProt P21802); test: competition ELISA: inhibition of biotin-FGF10 binding to coated hFGFR2b-Fc
[3] = target: human FGFR2b expressed on cells (hFGFR2b-expressing CHOK1 cells; Ba/F3 cells expressing full-length human FGFR2b) (human) (UniProt P21802); test: flow cytometry on CHOK1 cells expressing hFGFR2b, detection with APC anti-human IgG Fc
Chain of human FGFR2b expressed on cells (hFGFR2b-expressing CHOK1 cells; Ba/F3 cells expressing full-length human FGFR2b) (human) (P21802 other isoform, or with tags, fused parts or gaps): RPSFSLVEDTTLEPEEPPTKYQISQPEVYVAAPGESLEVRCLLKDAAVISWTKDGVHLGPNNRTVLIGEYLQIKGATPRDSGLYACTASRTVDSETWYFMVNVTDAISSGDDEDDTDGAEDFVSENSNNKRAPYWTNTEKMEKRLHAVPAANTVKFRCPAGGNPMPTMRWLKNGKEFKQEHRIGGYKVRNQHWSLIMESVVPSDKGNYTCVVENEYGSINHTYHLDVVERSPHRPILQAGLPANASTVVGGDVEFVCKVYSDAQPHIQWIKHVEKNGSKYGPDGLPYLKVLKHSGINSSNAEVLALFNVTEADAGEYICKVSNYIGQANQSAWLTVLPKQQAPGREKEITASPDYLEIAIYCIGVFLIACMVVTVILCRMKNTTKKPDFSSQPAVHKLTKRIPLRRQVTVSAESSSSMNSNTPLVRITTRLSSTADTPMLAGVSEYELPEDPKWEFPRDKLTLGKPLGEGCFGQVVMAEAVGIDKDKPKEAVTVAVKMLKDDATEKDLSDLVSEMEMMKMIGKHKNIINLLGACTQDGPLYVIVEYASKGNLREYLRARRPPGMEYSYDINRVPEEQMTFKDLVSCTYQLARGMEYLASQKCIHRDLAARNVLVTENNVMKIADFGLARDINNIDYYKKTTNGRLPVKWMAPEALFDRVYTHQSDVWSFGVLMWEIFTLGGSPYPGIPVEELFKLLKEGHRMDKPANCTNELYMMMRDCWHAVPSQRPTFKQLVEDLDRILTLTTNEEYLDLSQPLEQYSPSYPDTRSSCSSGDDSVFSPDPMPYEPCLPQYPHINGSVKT

[4] = target: hFGFR2b-Fc (Kactus, Catalog #FGR-HM2BB) (human) (UniProt P21802); test: epitope binning ELISA: competing Ab FPA144 in solution with biotin-hFGFR2b-Fc; competitor (column, coated) HC18
[5] = target: hFGFR2b-Fc (Kactus, Catalog #FGR-HM2BB) (human) (UniProt P21802); test: epitope binning ELISA: competing Ab FPA144 in solution with biotin-hFGFR2b-Fc; competitor (column, coated) FPA144
[6] = target: human FGFR2c expressed on CHOK1 cells (human) (UniProt P21802); test: flow cytometry on CHOK1 cells expressing hFGFR2c, detection with APC anti-human IgG Fc
Chain of human FGFR2c expressed on CHOK1 cells (human) (P21802 22-821): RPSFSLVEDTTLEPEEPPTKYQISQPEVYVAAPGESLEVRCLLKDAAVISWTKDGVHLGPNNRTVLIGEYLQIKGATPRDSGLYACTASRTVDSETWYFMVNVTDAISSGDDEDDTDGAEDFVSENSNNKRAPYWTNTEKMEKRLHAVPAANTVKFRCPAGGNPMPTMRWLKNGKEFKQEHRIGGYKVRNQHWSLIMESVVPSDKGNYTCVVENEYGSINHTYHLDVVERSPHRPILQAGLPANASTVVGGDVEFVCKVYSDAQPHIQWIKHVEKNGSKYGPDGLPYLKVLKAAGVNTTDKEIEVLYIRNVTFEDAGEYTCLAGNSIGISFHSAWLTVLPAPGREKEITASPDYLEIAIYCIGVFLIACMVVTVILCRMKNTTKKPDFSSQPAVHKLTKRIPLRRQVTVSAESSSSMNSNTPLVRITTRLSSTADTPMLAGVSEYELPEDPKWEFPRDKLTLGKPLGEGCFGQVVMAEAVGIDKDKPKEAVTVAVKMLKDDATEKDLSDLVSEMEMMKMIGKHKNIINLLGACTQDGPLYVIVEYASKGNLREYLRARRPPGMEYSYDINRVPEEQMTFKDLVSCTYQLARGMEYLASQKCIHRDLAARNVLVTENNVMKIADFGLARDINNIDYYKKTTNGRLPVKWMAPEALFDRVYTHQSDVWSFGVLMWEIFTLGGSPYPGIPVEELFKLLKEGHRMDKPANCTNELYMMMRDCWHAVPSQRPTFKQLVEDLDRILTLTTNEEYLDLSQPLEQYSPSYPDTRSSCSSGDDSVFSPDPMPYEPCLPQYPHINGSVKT

Chain of hFGFR2b-Fc (Kactus, Catalog #FGR-HM2BB) (human) (P21802 other isoform, or with tags, fused parts or gaps): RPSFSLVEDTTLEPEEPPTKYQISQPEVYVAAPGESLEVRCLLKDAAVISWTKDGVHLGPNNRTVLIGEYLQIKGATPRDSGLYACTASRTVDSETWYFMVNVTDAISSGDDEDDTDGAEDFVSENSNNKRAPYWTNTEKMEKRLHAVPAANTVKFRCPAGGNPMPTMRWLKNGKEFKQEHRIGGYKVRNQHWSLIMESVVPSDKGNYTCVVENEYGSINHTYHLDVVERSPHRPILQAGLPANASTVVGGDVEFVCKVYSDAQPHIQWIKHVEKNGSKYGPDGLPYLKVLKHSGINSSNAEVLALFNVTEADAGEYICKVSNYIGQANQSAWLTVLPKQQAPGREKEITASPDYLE

IC50 [1] [nM]	Inhibition (%) [1] [%]	ODmin [1] [OD]	IC50 [2] [nM]	Inhibition (%) [2] [%]	ODmin [2] [OD]	EC50 (read off the curve) [3] [nM]	percent competition (epitope binning; value not given) [4] [%]	percent competition (epitope binning; value not given) [5] [%]	EC50 (read off the curve) [6] [nM]	Binder
2.4	100	0.172	6.65	100	0.496	0.2	98	98		FPA144 (antibody, INN chains, looked up, V domains shown) VH: QVQLVQSGAEVKKPGSSVKVSCKASGYIFTTYNVHWVRQAPGQGLEWIGSIYPDNGDTSYNQNFKGRATITADKSTSTAYMELSSLRSEDTAVYYCARGDFAYWGQGTLVTVSS VL: DIQMTQSPSSLSASVGDRVTITCKASQGVSNDVAWYQQKPGKAPKLLIYSASYRYTGVPSRFSGSGSGTDFTFTISSLQPEDIATYYCQQHSTTPYTFGQGTKLEIK
									1	Aprutumab (antibody, INN chains, looked up, V domains shown) VH: EVQLLESGGGLVQPGGSLRLSCAASGFTFSSYAMSWVRQAPGKGLEWVSAISGSGTSTYYADSVKGRFTISRDNSKNTLYLQMNSLRAEDTAVYYCARVRYNWNHGDWFDPWGQGTLVTVSS VL: QSVLTQPPSASGTPGQRVTISCSGSSSNIGNNYVSWYQQLPGTAPKLLIYENYNRPAGVPDRFSGSKSGTSASLAISGLRSEDEADYYCSSWDDSLNYWVFGGGTKLTVL
